Reference: patent US20180258140A1, “NEW DODECAPEPTIDES AND MICROCAPSULES FUNCTIONALISED WITH THEM TARGETED TO FIBROBLASTS” (Infinitec Activos, S.L., priority 2015, published 2018)
*: point of attachment. Palmitoyl = CCCCCCCCCCCCCCCC(=O)*

B1: Peptide 2: Palm-Lys-Ala-Asn-Leu-Pro-Leu-Gly-Asn-Tyr-Lys-Lys-Pro-NH2 (peptide)
peptide: Palmitoyl-KANLPLGNYKKP-NH2
SMILES: CCCCCCCCCCCCCCCC(=O)N[C@@H](CCCCN)C(=O)N[C@@H](C)C(=O)N[C@@H](CC(N)=O)C(=O)N[C@@H](CC(C)C)C(=O)N1CCC[C@H]1C(=O)N[C@@H](CC(C)C)C(=O)NCC(=O)N[C@@H](CC(N)=O)C(=O)N[C@@H](Cc1ccc(O)cc1)C(=O)N[C@@H](CCCCN)C(=O)N[C@@H](CCCCN)C(=O)N1CCC[C@H]1C(N)=O
B2: Peptide 8: Palm-Lys-Phe-Asn-Leu-Pro-Leu-Gly-Ala-Tyr-Lys-Lys-Pro-NH2 (peptide)
peptide: Palmitoyl-KFNLPLGAYKKP-NH2
SMILES: CCCCCCCCCCCCCCCC(=O)N[C@@H](CCCCN)C(=O)N[C@@H](Cc1ccccc1)C(=O)N[C@@H](CC(N)=O)C(=O)N[C@@H](CC(C)C)C(=O)N1CCC[C@H]1C(=O)N[C@@H](CC(C)C)C(=O)NCC(=O)N[C@@H](C)C(=O)N[C@@H](Cc1ccc(O)cc1)C(=O)N[C@@H](CCCCN)C(=O)N[C@@H](CCCCN)C(=O)N1CCC[C@H]1C(N)=O
B3: Peptide 7: Palm-Lys-Phe-Asn-Leu-Pro-Leu-Ala-Asn-Tyr-Lys-Lys-Pro-NH2 (peptide)
peptide: Palmitoyl-KFNLPLANYKKP-NH2
SMILES: CCCCCCCCCCCCCCCC(=O)N[C@@H](CCCCN)C(=O)N[C@@H](Cc1ccccc1)C(=O)N[C@@H](CC(N)=O)C(=O)N[C@@H](CC(C)C)C(=O)N1CCC[C@H]1C(=O)N[C@@H](CC(C)C)C(=O)N[C@@H](C)C(=O)N[C@@H](CC(N)=O)C(=O)N[C@@H](Cc1ccc(O)cc1)C(=O)N[C@@H](CCCCN)C(=O)N[C@@H](CCCCN)C(=O)N1CCC[C@H]1C(N)=O
B4: Peptide 5: Palm-Lys-Phe-Asn-Leu-Ala-Leu-Gly-Asn-Tyr-Lys-Lys-Pro-NH2 (peptide)
peptide: Palmitoyl-KFNLALGNYKKP-NH2
SMILES: CCCCCCCCCCCCCCCC(=O)N[C@@H](CCCCN)C(=O)N[C@@H](Cc1ccccc1)C(=O)N[C@@H](CC(N)=O)C(=O)N[C@@H](CC(C)C)C(=O)N[C@@H](C)C(=O)N[C@@H](CC(C)C)C(=O)NCC(=O)N[C@@H](CC(N)=O)C(=O)N[C@@H](Cc1ccc(O)cc1)C(=O)N[C@@H](CCCCN)C(=O)N[C@@H](CCCCN)C(=O)N1CCC[C@H]1C(N)=O
B5: Peptide 12: Palm-Lys-Phe-Asn-Leu-Pro-Leu-Gly-Asn-Tyr-Lys-Lys-Ala-NH2 (peptide)
peptide: Palmitoyl-KFNLPLGNYKKA-NH2
SMILES: CCCCCCCCCCCCCCCC(=O)N[C@@H](CCCCN)C(=O)N[C@@H](Cc1ccccc1)C(=O)N[C@@H](CC(N)=O)C(=O)N[C@@H](CC(C)C)C(=O)N1CCC[C@H]1C(=O)N[C@@H](CC(C)C)C(=O)NCC(=O)N[C@@H](CC(N)=O)C(=O)N[C@@H](Cc1ccc(O)cc1)C(=O)N[C@@H](CCCCN)C(=O)N[C@@H](CCCCN)C(=O)N[C@@H](C)C(N)=O
B6: Peptide 4: Palm-Lys-Phe-Asn-Ala-Pro-Leu-Gly-Asn-Tyr-Lys-Lys-Pro-NH2 (peptide)
peptide: Palmitoyl-KFNAPLGNYKKP-NH2
SMILES: CCCCCCCCCCCCCCCC(=O)N[C@@H](CCCCN)C(=O)N[C@@H](Cc1ccccc1)C(=O)N[C@@H](CC(N)=O)C(=O)N[C@@H](C)C(=O)N1CCC[C@H]1C(=O)N[C@@H](CC(C)C)C(=O)NCC(=O)N[C@@H](CC(N)=O)C(=O)N[C@@H](Cc1ccc(O)cc1)C(=O)N[C@@H](CCCCN)C(=O)N[C@@H](CCCCN)C(=O)N1CCC[C@H]1C(N)=O
B7: Peptide 10: Palm-Lys-Phe-Asn-Leu-Pro-Leu-Gly-Asn-Tyr-Ala-Lys-Pro-NH2 (peptide)
peptide: Palmitoyl-KFNLPLGNYAKP-NH2
SMILES: CCCCCCCCCCCCCCCC(=O)N[C@@H](CCCCN)C(=O)N[C@@H](Cc1ccccc1)C(=O)N[C@@H](CC(N)=O)C(=O)N[C@@H](CC(C)C)C(=O)N1CCC[C@H]1C(=O)N[C@@H](CC(C)C)C(=O)NCC(=O)N[C@@H](CC(N)=O)C(=O)N[C@@H](Cc1ccc(O)cc1)C(=O)N[C@@H](C)C(=O)N[C@@H](CCCCN)C(=O)N1CCC[C@H]1C(N)=O
B8: Peptide 11: Palm-Lys-Phe-Asn-Leu-Pro-Leu-Gly-Asn-Tyr-Lys-Ala-Pro-NH2 (peptide)
peptide: Palmitoyl-KFNLPLGNYKAP-NH2
SMILES: CCCCCCCCCCCCCCCC(=O)N[C@@H](CCCCN)C(=O)N[C@@H](Cc1ccccc1)C(=O)N[C@@H](CC(N)=O)C(=O)N[C@@H](CC(C)C)C(=O)N1CCC[C@H]1C(=O)N[C@@H](CC(C)C)C(=O)NCC(=O)N[C@@H](CC(N)=O)C(=O)N[C@@H](Cc1ccc(O)cc1)C(=O)N[C@@H](CCCCN)C(=O)N[C@@H](C)C(=O)N1CCC[C@H]1C(N)=O
B9: Peptide 3: Palm-Lys-Phe-Ala-Leu-Pro-Leu-Gly-Asn-Tyr-Lys-Lys-Pro-NH2 (peptide)
peptide: Palmitoyl-KFALPLGNYKKP-NH2
SMILES: CCCCCCCCCCCCCCCC(=O)N[C@@H](CCCCN)C(=O)N[C@@H](Cc1ccccc1)C(=O)N[C@@H](C)C(=O)N[C@@H](CC(C)C)C(=O)N1CCC[C@H]1C(=O)N[C@@H](CC(C)C)C(=O)NCC(=O)N[C@@H](CC(N)=O)C(=O)N[C@@H](Cc1ccc(O)cc1)C(=O)N[C@@H](CCCCN)C(=O)N[C@@H](CCCCN)C(=O)N1CCC[C@H]1C(N)=O
B10: Peptide 1: Palm-Lys-Phe-Asn-Leu-Pro-Leu-Gly-Asn-Tyr-Lys-Lys-Pro-NH2 (peptide)
peptide: Palmitoyl-KFNLPLGNYKKP-NH2
SMILES: CCCCCCCCCCCCCCCC(=O)N[C@@H](CCCCN)C(=O)N[C@@H](Cc1ccccc1)C(=O)N[C@@H](CC(N)=O)C(=O)N[C@@H](CC(C)C)C(=O)N1CCC[C@H]1C(=O)N[C@@H](CC(C)C)C(=O)NCC(=O)N[C@@H](CC(N)=O)C(=O)N[C@@H](Cc1ccc(O)cc1)C(=O)N[C@@H](CCCCN)C(=O)N[C@@H](CCCCN)C(=O)N1CCC[C@H]1C(N)=O
B11: Peptide 6: Palm-Lys-Phe-Asn-Leu-Pro-Ala-Gly-Asn-Tyr-Lys-Lys-Pro-NH2 (peptide)
peptide: Palmitoyl-KFNLPAGNYKKP-NH2
SMILES: CCCCCCCCCCCCCCCC(=O)N[C@@H](CCCCN)C(=O)N[C@@H](Cc1ccccc1)C(=O)N[C@@H](CC(N)=O)C(=O)N[C@@H](CC(C)C)C(=O)N1CCC[C@H]1C(=O)N[C@@H](C)C(=O)NCC(=O)N[C@@H](CC(N)=O)C(=O)N[C@@H](Cc1ccc(O)cc1)C(=O)N[C@@H](CCCCN)C(=O)N[C@@H](CCCCN)C(=O)N1CCC[C@H]1C(N)=O
B12: Peptide 9: Palm-Lys-Phe-Asn-Leu-Pro-Leu-Gly-Asn-Ala-Lys-Lys-Pro-NH2 (peptide)
peptide: Palmitoyl-KFNLPLGNAKKP-NH2
SMILES: CCCCCCCCCCCCCCCC(=O)N[C@@H](CCCCN)C(=O)N[C@@H](Cc1ccccc1)C(=O)N[C@@H](CC(N)=O)C(=O)N[C@@H](CC(C)C)C(=O)N1CCC[C@H]1C(=O)N[C@@H](CC(C)C)C(=O)NCC(=O)N[C@@H](CC(N)=O)C(=O)N[C@@H](C)C(=O)N[C@@H](CCCCN)C(=O)N[C@@H](CCCCN)C(=O)N1CCC[C@H]1C(N)=O

These binders were tested against FGFR4 Kinase (UniProt P22455 460-802, limits assumed) (assay: cell-based or functional assay).
Sequence of FGFR4 Kinase (P22455 460-802 limits assumed): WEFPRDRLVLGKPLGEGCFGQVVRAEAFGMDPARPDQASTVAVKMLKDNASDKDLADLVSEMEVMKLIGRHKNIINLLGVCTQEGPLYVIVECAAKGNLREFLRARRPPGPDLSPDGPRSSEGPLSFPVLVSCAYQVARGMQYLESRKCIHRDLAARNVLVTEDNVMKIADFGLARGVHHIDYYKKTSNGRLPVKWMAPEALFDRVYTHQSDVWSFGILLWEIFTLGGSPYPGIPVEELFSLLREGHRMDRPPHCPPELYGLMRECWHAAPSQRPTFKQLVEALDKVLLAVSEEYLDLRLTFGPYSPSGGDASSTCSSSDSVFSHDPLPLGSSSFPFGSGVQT

| Binder | FGFR4 Kinase % Inhibition [%] |
| --- | --- |
| B1 | 96.4 |
| B2 | 89.5 |
| B3 | 67.9 |
| B4 | 0 |
| B5 | 42.3 |
| B6 | 0 |
| B7 | 0 |
| B8 | 0 |
| B9 | 65.9 |
| B10 | 38.7 |
| B11 | 69.8 |
| B12 | 92.5 |

These binders were tested against FGFR3 Kinase (UniProt P22607 436-806) (assay: cell-based or functional assay).
Sequence of FGFR3 Kinase (P22607 436-806 limits assumed): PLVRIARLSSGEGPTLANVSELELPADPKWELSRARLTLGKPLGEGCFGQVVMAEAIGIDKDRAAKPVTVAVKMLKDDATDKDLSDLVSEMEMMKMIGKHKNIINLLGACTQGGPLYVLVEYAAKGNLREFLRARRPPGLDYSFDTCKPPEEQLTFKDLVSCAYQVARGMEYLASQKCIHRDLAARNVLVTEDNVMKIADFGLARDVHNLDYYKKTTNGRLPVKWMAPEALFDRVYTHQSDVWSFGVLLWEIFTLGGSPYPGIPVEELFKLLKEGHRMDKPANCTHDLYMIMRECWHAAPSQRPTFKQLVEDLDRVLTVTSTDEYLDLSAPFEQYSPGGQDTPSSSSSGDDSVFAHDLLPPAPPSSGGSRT

| Binder | FGFR3 Kinase % Inhibition [%] |
| --- | --- |
| B1 | 38.8 |
| B2 | 87.9 |
| B3 | 72.9 |
| B4 | 49.6 |
| B5 | 46.4 |
| B6 | 60.8 |
| B7 | 0 |
| B8 | 19.3 |
| B9 | 91.9 |
| B10 | 75.8 |
| B11 | 78.5 |
| B12 | 91.6 |

These binders were tested against human FGFR1 kinase (human, UniProt P11362 398-822, limits assumed) (assay: cell-based or functional assay).
Sequence of human FGFR1 kinase (P11362 398-822 limits assumed): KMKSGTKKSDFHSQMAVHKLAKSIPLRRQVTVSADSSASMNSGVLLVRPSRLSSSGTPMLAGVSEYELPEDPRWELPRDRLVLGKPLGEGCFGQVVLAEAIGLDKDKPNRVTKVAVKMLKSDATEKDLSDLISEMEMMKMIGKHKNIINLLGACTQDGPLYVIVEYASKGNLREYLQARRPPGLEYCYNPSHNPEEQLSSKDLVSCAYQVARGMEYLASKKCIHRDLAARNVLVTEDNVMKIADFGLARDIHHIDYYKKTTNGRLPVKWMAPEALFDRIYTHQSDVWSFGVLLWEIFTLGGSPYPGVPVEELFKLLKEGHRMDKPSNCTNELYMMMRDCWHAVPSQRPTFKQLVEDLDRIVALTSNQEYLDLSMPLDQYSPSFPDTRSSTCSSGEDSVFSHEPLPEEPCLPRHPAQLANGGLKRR

| Binder | FGFR1 Kinase % Inhibition [%] |
| --- | --- |
| B1 | 0 |
| B2 | 0 |
| B3 | 0 |
| B4 | 0 |
| B5 | 0 |
| B6 | 0 |
| B7 | 0 |
| B8 | 0 |
| B9 | 85 |
| B10 | 0 |
| B11 | 92.7 |
| B12 | 15.7 |
